Molecular target: Split-CFTR front half (N-term-TMD1-NBD1; aa 1-634) (UniProt P13569 1-634)
Test: proximity ligation

Sequence of Split-CFTR front half (N-term-TMD1-NBD1; aa 1-634) (P13569 1-634): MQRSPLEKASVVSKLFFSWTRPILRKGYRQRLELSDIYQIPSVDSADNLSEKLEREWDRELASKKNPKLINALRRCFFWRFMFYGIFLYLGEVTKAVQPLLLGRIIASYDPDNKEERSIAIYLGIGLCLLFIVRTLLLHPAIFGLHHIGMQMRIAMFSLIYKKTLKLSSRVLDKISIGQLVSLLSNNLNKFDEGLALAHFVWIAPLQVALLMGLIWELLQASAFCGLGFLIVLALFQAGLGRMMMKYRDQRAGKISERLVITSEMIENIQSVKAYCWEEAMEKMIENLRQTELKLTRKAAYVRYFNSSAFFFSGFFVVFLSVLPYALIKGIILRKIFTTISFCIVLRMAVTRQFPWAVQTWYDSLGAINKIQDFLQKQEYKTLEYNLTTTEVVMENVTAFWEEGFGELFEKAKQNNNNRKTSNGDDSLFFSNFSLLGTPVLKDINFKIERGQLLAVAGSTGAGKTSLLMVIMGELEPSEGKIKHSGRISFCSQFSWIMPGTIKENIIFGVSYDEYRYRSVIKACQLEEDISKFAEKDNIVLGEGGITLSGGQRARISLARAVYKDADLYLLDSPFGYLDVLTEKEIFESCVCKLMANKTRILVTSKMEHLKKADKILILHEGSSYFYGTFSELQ

CTCF of PLA signal (after PKA stimulation): 1.4 | CTCF of PLA signal (after PKC + PKA stimulation): 5.28 | CTCF of PLA signal (after PKC stimulation): 5.54 | CTCF of PLA signal (basal): 0.33
B1: CFTR R-region R-6CA (S641A/T682A/S707A/S790A/T791A/S809A; aa 635-836) (domain or fragment, UniProt P13569 635-836, looked up)
chain: NLQPDFASKLMGCDSFDQFSAERRNSILTETLHRFSLEGDAPVSWTEAKKQSFKQTGEFGEKRKNSILNPINAIRKFSIVQKTPLQMNGIEEDSDEPLERRLSLVPDSEQGEAILPRISVISTGPTLQARRRQSVLNLMTHSVNQGQNIHRKTTAAARKVSLAPQANLTELDIYARRLSQETGLEISEEINEEDLKECFFDD

— paper PMC6996395 (FASEB bioAdvances, 2019)
